Test results taken from article PMC2978097 (2010).

Target: α-synuclein (Homo sapiens, UniProt P37840)
Experiment: fluorescence anisotropy

- Kd: ~1 µM
Binder: GVLWVGSKTR [Y39W β-syn 36D]
